Measured values taken from patent publication US10407503B2, “Fully human antibodies and fragments recognizing human c-Met” (THE REGENTS OF THE UNIVERSITY OF CALIFORNIA, priority 2012, dated 2019).

Biological target: T1, cell surface MET (Homo sapiens, UniProt P08581)
T1 construct: endogenous in cells; host or cells: Hcc827 or Hcc827-GR6
Experiment: Phage flow cytometry for binding to c-MET expressing cells
Settings: phage antibodies; Hcc827 or Hcc827-GR6 cells; FITC anti-M13 detection
Method: For phage antibodies, flow cytometry was used to confirm their binding to c-MET expressing cells. Bacteria culture containing phage was concentrated 30 times into PBS according to published method (Antibody Engineering Methods and Protocols, Benny K. C. Lo). 2˜5×105 c-MET positive Hcc827 or Hcc827-GR6 cells (Engelman et. al, Science, 2007) were incubated with 100 ul concentrated phage and 30 ul 4% milk-PBS on ice for 1 hour. Cells were then washed using flow buffer (PBS, 1% FBS, 2 mM EDTA), and the binding phage antibodies were detected by FITC conjugated anti-M13 monoclonal antibody (Santa Cruz Biotechnology, Cat# sc-53005 Fitc).
93 clones were randomly picked after 3 rounds of panning. The phage-containing supernatant was used for phage ELISA. Top 64 clones with highest A405 signal were sequenced, among which 19 distinctive clones with different sequences were identified. These distinctive clones were then tested for binding to cell surface MET by phage flow experiments. 8 of these clones show good binding to cell surface MET and were selected for the subsequent purification and characterizations.

T1 sequence (P08581 25-1390): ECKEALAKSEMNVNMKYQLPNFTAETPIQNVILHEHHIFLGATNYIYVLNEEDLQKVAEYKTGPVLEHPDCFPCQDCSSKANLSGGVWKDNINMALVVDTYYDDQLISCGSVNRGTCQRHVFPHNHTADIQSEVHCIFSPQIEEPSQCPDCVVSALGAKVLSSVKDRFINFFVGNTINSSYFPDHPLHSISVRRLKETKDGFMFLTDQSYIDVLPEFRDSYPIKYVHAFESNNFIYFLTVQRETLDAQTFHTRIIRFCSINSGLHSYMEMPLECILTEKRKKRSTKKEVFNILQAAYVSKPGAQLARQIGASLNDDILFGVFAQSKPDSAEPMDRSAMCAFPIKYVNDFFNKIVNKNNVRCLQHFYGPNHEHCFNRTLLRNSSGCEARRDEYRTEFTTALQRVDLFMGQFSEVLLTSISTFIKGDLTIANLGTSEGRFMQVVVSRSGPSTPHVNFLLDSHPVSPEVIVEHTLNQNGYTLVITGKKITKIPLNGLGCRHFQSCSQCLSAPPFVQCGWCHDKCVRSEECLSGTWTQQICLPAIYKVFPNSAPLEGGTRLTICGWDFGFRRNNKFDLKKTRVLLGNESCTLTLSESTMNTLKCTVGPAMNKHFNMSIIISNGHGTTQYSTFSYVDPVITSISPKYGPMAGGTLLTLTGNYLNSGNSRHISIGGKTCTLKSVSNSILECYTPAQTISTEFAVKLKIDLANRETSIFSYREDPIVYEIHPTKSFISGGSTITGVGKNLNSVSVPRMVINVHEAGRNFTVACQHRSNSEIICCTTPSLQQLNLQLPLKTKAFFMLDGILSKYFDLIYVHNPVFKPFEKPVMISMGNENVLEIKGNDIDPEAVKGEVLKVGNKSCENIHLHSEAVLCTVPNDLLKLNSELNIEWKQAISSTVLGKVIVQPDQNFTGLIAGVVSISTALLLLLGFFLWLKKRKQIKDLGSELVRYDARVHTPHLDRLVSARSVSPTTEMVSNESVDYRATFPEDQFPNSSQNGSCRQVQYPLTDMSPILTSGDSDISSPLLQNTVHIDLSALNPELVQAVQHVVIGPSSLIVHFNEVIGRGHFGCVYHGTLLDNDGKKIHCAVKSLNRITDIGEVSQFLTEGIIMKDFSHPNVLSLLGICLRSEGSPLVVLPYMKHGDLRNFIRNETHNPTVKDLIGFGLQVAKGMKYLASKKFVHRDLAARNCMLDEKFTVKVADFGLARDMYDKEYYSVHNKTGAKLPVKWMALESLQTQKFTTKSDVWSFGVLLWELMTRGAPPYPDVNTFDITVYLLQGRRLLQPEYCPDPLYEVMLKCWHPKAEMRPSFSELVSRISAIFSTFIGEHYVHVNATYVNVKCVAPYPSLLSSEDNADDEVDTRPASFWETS

B1: C2 ScFv antibody: human anti-c-Met ScFv comprising SEQ ID NO:26; tested as phage-displayed clone (protein)
scFv: QVQLQESGGGLVQPGGSLRLSCAASGFTFSSYAMSWVRQAPGKGLEWVSAISGSGGSTYYADSVKGRFTISRDNSKNTLYLQMNSLRAEDTAVYYCASQHVGEQSRYFDYWGQGTLVTVSSGGGGGSGGGGSGGGGSDIVMTQSPSSLSASIGDRVTITCRASHSISSYVNWYQKKPGKAPNLLIYAASYLPRGVPSRFSGSGLGTDFTLTISNLQPEDFATYYCQESYSTPYSFGQGTKVDIKR
modifications: phage-displayed; synthetic C2 ScFv sequence
Question: How did the “binding to cell surface MET” value turn out when B1 was run?
Answer: The value was “can bind to cell surface MET”.

B2: F11 ScFv antibody: human anti-c-Met ScFv comprising SEQ ID NO:29; tested as phage-displayed clone (protein)
scFv: QVQLQESGGGLLQPGGSLRLSCAASRFTFSNYAMSWVRQAPGKGLEWVSAISGSGASTYYADSVKGRFTISRDNSKNTLYLQMNSLRAEDTAVYYCSNLYGDYDYWGQGTLVTVSSGGGGGSGGGGSGGGGSQSVLTQPASVSGSPGQSITISCTGTSSDVGGYNYVSWYQQHPGKAPKLMIYDVSNRPSGVSNRFSGSKSGNTASLTISGLQAEDEADYYCSSYTSSSTLLFGGGTKLTVLG
modifications: phage-displayed; synthetic F11 ScFv sequence
Question: With B2 as the molecule, how does the “binding to cell surface MET” value read?
Answer: Its value is “can bind to cell surface MET”.

B3: G1 ScFv antibody: human anti-c-Met ScFv comprising SEQ ID NO:30; tested as phage-displayed clone (protein)
scFv: QVQLQESGGGVVQPGGSLRLSCAASGFTFSSYSMNWVRQAPGKGLEWVSSISSSSSYIYYADSVKGRFTISRDNAKNSLYLQMNSLRAEDTAVYYCARDLPSDDYGDYDYYYYGMDVWGQGTTVTVSSGGGGGSGGGGSGGGGSQSVLTQPPSASGTPGQRVTLFCSGSSSNIASNSVKWYQQPPQRAPKLLMFSDDQRPSGVPVRFSASKSGTSASLAISGLQSEDEADYYCAAWDDSLNAEVFGGGTKVTVLG
modifications: phage-displayed; synthetic G1 ScFv sequence
Question: With B3 as the molecule, how does the “binding to cell surface MET” value read?
Answer: The value was “can bind to cell surface MET”.

B4: F1 ScFv antibody: human anti-c-Met ScFv comprising SEQ ID NO:28; tested as phage-displayed clone (protein)
scFv: QVQLVQSGAEVKKPGASVKVSCKASGYTFTDYYMHWVRQAPGEGLEWMGWMNPNSGGTNYAQKFQGRVTMTRDTSISTAYMELSRLRSDDTAVYYCARSHYWDSWSPGTLVTVSSGGGGGSGGGGSGGGGSSALTQPASVSGSPGQSITISCTGTSGDVGGYNYVSWYQQHPGKAPKLMIYDVSNRPSGVSNRFSGSKSGNTASLTISGLQAEDEADYYCTSYAGSRNLVFGGGTKLTVLG
modifications: phage-displayed; synthetic F1 ScFv sequence
Question: For B4, which “binding to cell surface MET” value is on record?
Answer: The value was “can bind to cell surface MET”.

B5: E9 ScFv antibody: human anti-c-Met ScFv comprising SEQ ID NO:27; tested as phage-displayed clone (protein)
scFv: QVQLQESGGGVVQPGRSLRLSCAASGFTFSSYGMHWVRQAPGKGLEWVSAIGSSGGSTHDADTVKGRFTISRDNAKNSLYLQMNSLRAEDTAVYYCARDRARGFDYWGQGTLVTVSSGGGGGSGGGGSGGGGSEIVLTQSPSTLSASIGDRVTITCRASQGISSYLAWYQQKPGKAPKLLIYGASSLQSGVPSRFSGRGSGADFTLTISSLQPEDFATYYCQQLISYPLTFGGGTKVEIKR
modifications: phage-displayed; synthetic E9 ScFv sequence
Question: With B5 as the molecule, how does the “binding to cell surface MET” value read?
Answer: Its value is “can bind to cell surface MET”.
